Test results from IntAct's records for PubMed 20581825.

B1: Periplasmic serine endoprotease DegP (Escherichia coli (strain K12)), P0C0V0 (parent)
chain: MKKTTLALSALALSLGLALSPLSATAAETSSATTAQQMPSLAPMLEKVMPSVVSINVEGSTTVNTPRMPRNFQQFFGDDSPFCQEGSPFQSSPFCQGGQGGNGGGQQQKFMALGSGVIIDADKGYVVTNNHVVDNATVIKVQLSDGRKFDAKMVGKDPRSDIALIQIQNPKNLTAIKMADSDALRVGDYTVAIGNPFGLGETVTSGIVSALGRSGLNAENYENFIQTDAAINRGNSGGALVNLNGELIGINTAILAPDGGNIGIGFAIPSNMVKNLTSQMVEYGQVKRGELGIMGTELNSELAKAMKVDAQRGAFVSQVLPNSSAAKAGIKAGDVITSLNGKPISSFAALRAQVGTMPVGSKLTLGLLRDGKQVNVNLELQQSSQNQVDSSSIFNGIEGAEMSNKGKDQGVVVNNVKTGTPAAQIGLKKGDVIIGANQQAVKNIAELRKVLDSKPSVLALNIQRGDSTIYLLMQ
partner: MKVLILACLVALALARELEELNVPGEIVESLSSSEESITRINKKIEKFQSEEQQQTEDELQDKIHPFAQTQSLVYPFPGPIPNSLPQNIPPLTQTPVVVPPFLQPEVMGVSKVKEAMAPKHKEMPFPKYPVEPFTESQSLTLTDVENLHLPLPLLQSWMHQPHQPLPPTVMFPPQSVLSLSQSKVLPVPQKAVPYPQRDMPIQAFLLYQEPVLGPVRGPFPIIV

Variants of: B1
Settings: with casb_bovin CSN2, P02666

Variant	effect of a mutation on the interaction
MKKTTLALSALALSLGLALSPLSATAAETSSATTAQQMPSLAPMLEKVMPSVVSINVEGSTTVNTPRMPRNFQQFFGDDSPFCQEGSPFQSSPFCQGGQGGNGGGQQQKFMALGSGVIIDADKGYVVTNNHVVDNATVIKVQLSDGRKFDAKMVGKDPRSDIALIQIQNPKNLTAIKMADSDALRVGDYTVAIGNPFGLGETVTSGIVSALGRSGLNAENYENFIQTDAAINRGNSGGALVNLNGELIGINTAILAPDGGNIGIGFAIPSNMVKNLTSQMVEYGQVKRGELGIMGTELNSELAKAMKVDAQRGAFVSQVLPNSSAAKAGIKAGDVITSLNGKPISSFAALAAAVGTMPVGSKLTLGLLRDGKQVNVNLELQQSSQNQVDSSSIFNGIEGAEMSNKGKDQGVVVNNVKTGTPAAQIGLKKGDVIIGANQQAVKNIAELRKVLDSKPSVLALNIQRGDSTIYLLMQ [R351A;Q353A]	disrupting interaction
MKKTTLALSALALSLGLALSPLSATAAETSSATTAQQMPSLAPMLEKVMPSVVSINVEGSTTVNTPRMPRNFQQFFGDDSPFCQEGSPFQSSPFCQGGQGGNGGGQQQKFMALGSGVIIDADKGYVVTNNHVVDNATVIKVQLSDGRKFDAKMVGKDPRSDIALIQIQNPKNLTAIKMADSDALRVGDYTVAIGNPFGLGETVTSGIVSALGRSGLNAENYENFIQTDAAINRGNSGGALVNLNGELIGINTAILAPDGGNIGIGFAIPSNMVKNLTSQMVEYGQVKRGEWGIMGTELNSELAKAMKVDAQRGAFVSQVLPNSSAAKAGIKAGDVITSLNGKPISSFAALRAQVGTMPVGSKLTLGLLRDGKQVNVNLELQQSSQNQVDSSSIFNGIEGAEMSNKGKDQGVVVNNVKTGTPAAQIGLKKGDVIIGANQQAVKNIAELRKVLDSKPSVLALNIQRGDSTIYLLMQ [L291W]	disrupting interaction

Variants of: B1
Settings: with casb_bovin CSN2, P02666
Remark: another data set of the same source

Variant	effect of a mutation on the interaction
MKKTTLALSALALSLGLALSPLSATAAETSSATTAQQMPSLAPMLEKVMPSVVSINVEGSTTVNTPRMPRNFQQFFGDDSPFCQEGSPFQSSPFCQGGQGGNGGGQQQKFMALGSGVIIDADKGYVVTNNHVVDNATVIKVQLSDGRKFDAKMVGKDPRSDIALIQIQNPKNLTAIKMADSDALRVGDYTVAIGNPFGLGETVTSGIVSALGRSGLNAENYENFIQTDAAINRGNSGGALVNLNGELIGINTAILAPDGGNIGIGFAIPSNMVKNLTSQMVEYGQVKRGELGIMGTELNSELAKAMKVDAQRGAFVSQVLPNSSAAKAGIKAGDVITSLNGKPISSFAALAAAVGTMPVGSKLTLGLLRDGKQVNVNLELQQSSQNQVDSSSIFNGIEGAEMSNKGKDQGVVVNNVKTGTPAAQIGLKKGDVIIGANQQAVKNIAELRKVLDSKPSVLALNIQRGDSTIYLLMQ [R351A;Q353A]	decreasing interaction
MKKTTLALSALALSLGLALSPLSATAAETSSATTAQQMPSLAPMLEKVMPSVVSINVEGSTTVNTPRMPRNFQQFFGDDSPFCQEGSPFQSSPFCQGGQGGNGGGQQQKFMALGSGVIIDADKGYVVTNNHVVDNATVIKVQLSDGRKFDAKMVGKDPRSDIALIQIQNPKNLTAIKMADSDALRVGDYTVAIGNPFGLGETVTSGIVSALGASGLNAENYENFIQTDAAINRGNSGGALVNLNGELIGINTAILAPDGGNIGIGFAIPSNMVKNLTSQMVEYGQVKRGELGIMGTELNSELAKAMKVDAQRGAFVSQVLPNSSAAKAGIKAGDVITSLNGKPISSFAALRAQVGTMPVGSKLTLGLLRDGKQVNVNLELQQSSQNQVDSSSIFNGIEGAEMSNKGKDQGVVVNNVKTGTPAAQIGLKKGDVIIGANQQAVKNIAELRKVLDSKPSVLALNIQRGDSTIYLLMQ [R213A]	disrupting interaction
